Laboratory results reported in patent publication US20260035464A1 (STAIDSON BIOPHARMA, published 2026).

Tests used:
[1] = biological target: T1, human BTLA (Uniprot Q7Z6A9) expressed on cells (human, UniProt Q7Z6A9 31-289); experiment: flow cytometry on Expi293 cells stably overexpressing huBTLA, PE anti-human Fc
T1 construct: whole, on cells; also called huBTLA-overexpressing Expi293 cells
Text: To examine the binding of the chimeric anti-BTLA antibodies to huBTLA overexpressing cells, Expi293 cells stably overexpressing huBTLA were used to perform FACS analysis. Briefly, the coding sequence of huBTLA (Uniprot, Q7Z6A9) was cloned into a lentiviral vector and the recombinant virus was packaged according to the instruction of the virus packaging kit (Lenti-X™ Packaging Single Shots, Cat #631275, Takada). The Expi293 cells were transduced with the recombinant virus.
Expi293 cells stably overexpressing huBTLA were incubated with the chimeric anti-BTLA antibodies 83F2 or 86B7 in PBS containing 0.5% BSA, 1 mM EDTA, and 0.1% sodium azide (FACS buffer) for 30 minutes at 4° C. The cells were washed, and then incubated with 10 nM phycoerythrin (PE) conjugated anti-Human Fc Ab (BioLegend, cat #409304) for 20 minutes at 4° C. Cells were washed and then analyzed by flow cytometry with Attune (ThermoFisher Scientific). Data were analyzed with FlowJo software. Antibody binding is represented as median fluorescence intensity (MFI).

[2] = biological target: T2, rhesus monkey BTLA extracellular domain protein with His tag (Sino Biological, cat #90250-C08H) (rhesus monkey, UniProt G7MKA9 31-157); experiment: ELISA, rhesus monkey BTLA coated at 0.333 ug/mL, anti-human IgG Fc-AP detection
T2 construct: extracellular domain; Bought protein; also called His-tag-rhesus monkey BTLA; not shown: His tag
T2 sequence: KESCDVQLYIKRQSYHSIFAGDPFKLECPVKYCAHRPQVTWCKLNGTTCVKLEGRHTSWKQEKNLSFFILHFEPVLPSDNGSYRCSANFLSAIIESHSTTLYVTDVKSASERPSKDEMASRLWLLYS
Description: BTLA binding of purified recombinant chimeric antibodies by ELISA: The huBTLA and rhesus monkey BTLA antigen binding ELISA was performed on the purified recombinant chimeric antibodies. Briefly, 384-well, clear flat bottom high binding plates (Corning, cat #3700) were coated overnight at 4° C. with 0.333 μg/mL of huBTLA or rhesus monkey BTLA in PBS. The following purified process was performed as described in ELISA binding assay in Example 2, except that the secondary antibody was goat anti human IgG Fc-AP (Southern Biotech, cat #2014-04).

[3] = biological target: T1, human BTLA (Uniprot Q7Z6A9) expressed …; experiment: flow cytometry blocking assay on huBTLA-overexpressing Expi293 cells, antibody titrated, soluble human HVEM-mouse IgG2a Fc detected
Description: Expi293 cells stably overexpressing huBTLA were incubated with chimeric anti-BTLA antibody 83F2 or 86B7 for 30 minutes at 4° C. The cells were washed, and then incubated with human HVEM-mouse IgG2a Fc recombinant protein (Acro Biosystems, cat #HVM-H5255) at […] concentration for 20 minutes at 4° C. The human HVEM bindings were detected by goat anti-mouse Alexa 488 secondary antibody (ThermoFisher, cat #A-11029). Cells were washed and acquired by flow cytometry with Attune. Data were analyzed with FlowJo software. BTLA binding is represented as MFI.
FACS based blocking assays of humanized anti-BTLA antibodies were performed as described above in Example 3.

[4] = biological target: T1, human BTLA (Uniprot Q7Z6A9) expressed …; experiment: cell-based or functional assay
[5] = biological target: T3, human BTLA extracellular domain with C-terminal 10xHis tag (human, UniProt Q7Z6A9 31-157); experiment: BLI (Octet RED96), antibody captured on AHC biosensor, His-tag-huBTLA in solution, 1:1 model
T3 construct: also called HuBTLA-His; His-tag-huBTLA
T3 sequence: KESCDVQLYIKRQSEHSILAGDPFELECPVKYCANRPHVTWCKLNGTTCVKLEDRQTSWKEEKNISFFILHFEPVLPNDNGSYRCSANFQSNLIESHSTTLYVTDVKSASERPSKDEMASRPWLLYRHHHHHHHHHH
Description: The following kinetic assay was performed using anti-human IgG Fc capture (AHC) biosensors (ForteBio) in kinetics buffer (PBS, 0.1% Tween-20 and 1% bovine serum albumin): (a) antibody (2 μg/mL) for 300 sec, (b) baseline for 120 sec, (c) association with purified His-tag-huBTLA (2.5, 0.5 and 0 μg/mL) and His-tag-rhesus monkey BTLA (Sino Biologcal, cat #90250-C08H) (2.5, 0.5 and 0 μg/mL) for 420 sec and (d) dissociation for 1200 sec. Data fitting and analysis was performed with Octet data analysis software 8.0 (ForteBio) using a 1:1 binding model after Savitzky-Golay filtering.

- EC50 [1]: 0.554 nM
- EC50 [2]: 0.0559 nM
- IC50 (read off the curve) [3]: ~0.4 nM
- EC50 of recovery of IL-2 production, Raji-HVEM/primary human T cell coculture [4]: 1.68 nM
- Kd [5]: 0.257 nM
- koff [5]: 9.98e-05 s⁻¹
- kon [5]: 389000 M⁻¹ s⁻¹
B1: chimeric anti-BTLA antibody 86B7 (antibody, V domains shown)
VH: QVTLKESGPGILQPSQTLSLTCSFSGFSLSTFGMGVSWIRQPSGKGLEWLAHIYWDDDKRFNPSLKSRLSISKDTSNNQVFLKITTVDTADTATYYCARGNWDGETYFDYWGQGTTLTVSS
VL: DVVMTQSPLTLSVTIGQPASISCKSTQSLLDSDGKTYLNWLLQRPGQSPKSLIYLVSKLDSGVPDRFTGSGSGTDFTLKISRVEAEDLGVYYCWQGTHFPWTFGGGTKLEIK
